Test results taken from the supplement of paper PMC10126150.
± gives the standard deviation of the averaged measurements.

What follows are sequences tested on ATP (assay: switch fluorescence ratio, 500 uM ATP over buffer (Cy3 cluster intensity, sum of 5 cycles each) (fold (ratio)); higher = stronger signal-on switching upon ATP binding; sequences stand for … in TCGTCGGCAGCGTCAGATGTGTATAAGAGACAGTTTTTTTTTTTTTTTTTTTTTTTTT…TC). Conditions: aptamer strand: ATP DNA aptamer (quencher-CACCTGGGGGAGTATTGCGGAGGAAGG + anchor), 100 nM annealed; ATP concentration: 500 uM.
In short: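 Exposure to 500 uM ATP lasted 15 min at 22 °C before imaging, and a selection-buffer image was taken beforehand, for Cy3-labelled switching-strand clusters on a modified Illumina MiSeq flow-cell annealed to 100 nM quencher-labelled ATP aptamer. Five buffer/ATP cycles were run with NaOH stripping and re-annealing between them. The fluorescence ratio per cluster is summed target-cycle over summed buffer-cycle Cy3 intensity, averaged per switch-domain sequence. Clusters outside 100-1000 RFU were excluded.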
ATGAGGACCC was tested, and the switch fluorescence ratio was 0.982 ± 0.022.
AGGTAGGAAG gave a switch fluorescence ratio of 0.999 ± 0.034.
Work on CAATTCCGTG yielded a switch fluorescence ratio of 1.02 ± 0.022.
Work on CGCCGGCTTT yielded a switch fluorescence ratio of 1.019 ± 0.0085.
GGTACTGAGC showed a switch fluorescence ratio of 1.03 ± 0.061.
In the case of ATGCGGGTG, the switch fluorescence ratio is reported as 1.04 ± 0.061.
Sequence TATTTAAAGC has a switch fluorescence ratio of 0.9768 ± 0.0092.
With CGATTGAATC the switch fluorescence ratio was 0.991 ± 0.021.
Work on AAGCCATCCG yielded a switch fluorescence ratio of 1.07 ± 0.04.
ATTACCCGGA was tested, and the switch fluorescence ratio was 1 ± 0.028.
TCATGTTGGA was tested, and the switch fluorescence ratio was 0.977 ± 0.02.
Sequence TCTGTTTACG has a switch fluorescence ratio of 0.996 ± 0.016.
Work on GATAGGAGGG yielded a switch fluorescence ratio of 0.959 ± 0.012.
Sequence TTAGGATGTT has a switch fluorescence ratio of 1.0069 ± 0.00069.
In the case of TGCATTATAC, the switch fluorescence ratio is reported as 3.59 ± 0.19.
With TAAGGGGGT the switch fluorescence ratio was 1 ± 0.031.
With AGGTCGGGAT the switch fluorescence ratio was 1 ± 0.045.
Work on CGTCATATTA yielded a switch fluorescence ratio of 1.008 ± 0.0025.
CCTTGGGGGG gave a switch fluorescence ratio of 1.03 ± 0.11.
GCAGTTGGTA was tested, and the switch fluorescence ratio was 0.989 ± 0.02.
ATACTTTTGG showed a switch fluorescence ratio of 1 ± 0.011.
In the case of GGTTGGTTTG, the switch fluorescence ratio is reported as 0.99 ± 0.06.
ATCTCTCATA was tested, and the switch fluorescence ratio was 1.01 ± 0.038.
Work on ATTACCGGCG yielded a switch fluorescence ratio of 0.996 ± 0.025.
With CACTGGGGGA the switch fluorescence ratio was 0.9949 ± 0.0013.
In the case of ACTATTAATC, the switch fluorescence ratio is reported as 1 ± 0.02.
For GAGTTATCG, the switch fluorescence ratio was 1.01 ± 0.018.
TCGGTTGGTA was tested, and the switch fluorescence ratio was 1 ± 0.042.
Work on AGCACGGCAG yielded a switch fluorescence ratio of 0.991 ± 0.021.
With TTTTCTTTTT the switch fluorescence ratio was 1.06 ± 0.14.
Sequence GTACTTGGCT has a switch fluorescence ratio of 1.016 ± 0.0023.
TATAGTAACT gave a switch fluorescence ratio of 1.03 ± 0.041.
With GTTTGTGAAT the switch fluorescence ratio was 0.9814 ± 0.0086.
TGGCGCATAA was tested, and the switch fluorescence ratio was 1.25 ± 0.059.
CACCGGTTCT gave a switch fluorescence ratio of 1.03 ± 0.011.
Sequence TTGTATTGGT has a switch fluorescence ratio of 1.04 ± 0.11.
Sequence CAATCGACCT has a switch fluorescence ratio of 1.27 ± 0.046.
Sequence TTGTTTTTCC has a switch fluorescence ratio of 1.03 ± 0.057.
ATAGACGTTT showed a switch fluorescence ratio of 0.994 ± 0.053.
With CTGGATAGAA the switch fluorescence ratio was 1.01 ± 0.033.
CGAGAAGGGT showed a switch fluorescence ratio of 0.997 ± 0.039.
In the case of ACTTGAGGTC, the switch fluorescence ratio is reported as 0.991 ± 0.028.
TTTTTATCAT gave a switch fluorescence ratio of 0.998 ± 0.037.
AGCGAACGGG gave a switch fluorescence ratio of 1.05 ± 0.025.
Work on TGGAGTAAAA yielded a switch fluorescence ratio of 1.03 ± 0.053.
TTTTAGTTCT was tested, and the switch fluorescence ratio was 1.25 ± 0.42.
TATGAGGCTT gave a switch fluorescence ratio of 0.999 ± 0.028.
In the case of CGAGGAGGGA, the switch fluorescence ratio is reported as 0.9686 ± 0.0093.
For GGGTAAGCCC, the switch fluorescence ratio was 0.987 ± 0.015.
Work on GCATGGAAGG yielded a switch fluorescence ratio of 1.013 ± 0.0065.
GTCGTTGCTA gave a switch fluorescence ratio of 1.01 ± 0.015.
GTGATACGGG was tested, and the switch fluorescence ratio was 1.04 ± 0.021.
With ACAGGGGCCA the switch fluorescence ratio was 0.999 ± 0.011.
In the case of CCCGGGGGAA, the switch fluorescence ratio is reported as 1.03 ± 0.014.
GGAAAGACCG showed a switch fluorescence ratio of 1 ± 0.012.
Work on TTAGGGGAGC yielded a switch fluorescence ratio of 0.976 ± 0.021.
TTGTTAGGTT showed a switch fluorescence ratio of 1.06 ± 0.13.
Sequence CGTTGAGGTT has a switch fluorescence ratio of 0.979 ± 0.026.
AGTGTTGGG gave a switch fluorescence ratio of 0.9768 ± 0.0046.
Work on TCGGGGTCTT yielded a switch fluorescence ratio of 0.9941 ± 0.0029.
AGAGCAGGGA showed a switch fluorescence ratio of 0.97 ± 0.064.
For GCTTGTCGGC, the switch fluorescence ratio was 0.99 ± 0.035.
With GATTAATCTG the switch fluorescence ratio was 0.962 ± 0.015.
Sequence CGGGTTTGAA has a switch fluorescence ratio of 0.972 ± 0.024.
For CGATATGGTT, the switch fluorescence ratio was 1 ± 0.025.
ACCCCCTTCT was tested, and the switch fluorescence ratio was 1.32 ± 0.048.
With GCATAAACGC the switch fluorescence ratio was 1.06 ± 0.044.
GCAACGGCGG showed a switch fluorescence ratio of 1.01 ± 0.054.
For GAGGTTATAT, the switch fluorescence ratio was 0.992 ± 0.017.
TGCAAAATTT gave a switch fluorescence ratio of 0.995 ± 0.018.
For TTGATTTTAG, the switch fluorescence ratio was 1 ± 0.031.
GAGCCTTTGT gave a switch fluorescence ratio of 1.002 ± 0.006.
GACTGCATCG was tested, and the switch fluorescence ratio was 1.03 ± 0.015.
TTCTATGGCA gave a switch fluorescence ratio of 0.984 ± 0.043.
Sequence TTTTGGGGGG has a switch fluorescence ratio of 1.02 ± 0.081.
With TGCTTTCATG the switch fluorescence ratio was 1.01 ± 0.027.
